Test results as given in PMC3946673.

Target: human lactoferrin from milk (human)
Experiment: SPR; lactoferrin immobilised by amine coupling on Sensor Chip CM3 (around 1000 RU); EndoE variants injected at typically 31-500 nM, 15 µl/min, 25°C, 10 mM Hepes pH 7.5, 150 mM NaCl, 0.005% surfactant P20; BIAcore 2000; 1:1 Langmuir fit, KD from mean values of the rate constants

Substance | Kd [nM]
EndoE(E186Q) (from UniProt Q6U890 1-837) (enzyme) | 44
EndoE(E662Q) (from UniProt Q6U890 1-837) (enzyme) | 3.7
